The experiment deals with human CCR8 (HA-tagged) on stably transfected HEK293 cells (human), P51685. In words: flow cytometry on cells. The note with it: remark: other sources report otherwise.
Sequence of human CCR8 (HA-tagged) on stably transfected HEK293 cells (human), P51685 (P51685 whole entry): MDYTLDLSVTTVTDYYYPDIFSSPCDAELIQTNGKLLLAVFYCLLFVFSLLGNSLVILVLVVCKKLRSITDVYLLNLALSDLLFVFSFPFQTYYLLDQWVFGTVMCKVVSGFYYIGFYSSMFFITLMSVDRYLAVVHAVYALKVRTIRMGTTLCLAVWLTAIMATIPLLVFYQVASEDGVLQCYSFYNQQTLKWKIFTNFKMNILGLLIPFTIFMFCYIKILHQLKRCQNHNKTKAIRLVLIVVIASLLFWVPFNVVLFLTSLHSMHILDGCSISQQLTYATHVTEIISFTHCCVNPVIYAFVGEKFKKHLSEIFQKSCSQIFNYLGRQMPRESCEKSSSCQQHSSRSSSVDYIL

B1: unlabeled human recombinant CCL18, P55774 21-89 (ligand)
chain: AQVGTNKELCCLVYTSWQIPQKFIVDYSETSPQCPKPGVILLTKRGRQICADPNKKWVQKYISDLKLNA
As for B1, the IC50 came out at 4.1 nM.

(Values after paper PMC7616283.)
